In article PMC12550615, “Bifunctional Cysteine-Engineered CAR‑T Cells Enable Thiol-Mediated Targeting to Overcome Antigen Escape in B Cell Lymphoma” (ACS Central Science, 2025):

Molecular target: T1, recombinant, fluorescently labeled CD19 (Homo sapiens, UniProt P15391, fluorescent label (dye and site not stated))
T1 construct: CD19, B-lymphocyte antigen; In the functional rows this molecule stands for CD19 on JeKo-1 WT cells
Assay: flow cytometry on cells; recombinant, fluorescently labeled CD19 on CAR-transduced T cells, compared to nontransduced T cells; methods in the Supporting Information
Details: one partner purified

T1 sequence (P15391 21-277): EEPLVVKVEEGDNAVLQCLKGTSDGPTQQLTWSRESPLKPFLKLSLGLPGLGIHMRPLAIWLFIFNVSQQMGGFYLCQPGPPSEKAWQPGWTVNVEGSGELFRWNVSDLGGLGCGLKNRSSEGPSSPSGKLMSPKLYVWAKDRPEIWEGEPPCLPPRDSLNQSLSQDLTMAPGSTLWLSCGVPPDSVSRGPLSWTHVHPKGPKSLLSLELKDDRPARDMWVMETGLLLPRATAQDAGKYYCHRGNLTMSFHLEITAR

B1: G228C CD19-CysCAR (anti-CD19 CAR with the scFv FMC63, CD19-41BB-CAR format, G228C) (scFv, V domains shown)
VH: EVKLQESGPGLVAPSQSLSVTCTVSGVSLPDYGVSWIRQPPRKGLEWLGVIWGSETTYYNSALKSRLTIIKDNSKSQVFLKMNSLQTDDTAIYYCAKHYYYGCSYAMDYWGQGTSVTVSS
VL: DIQMTQTTSSLSASLGDRVTISCRASQDISKYLNWYQQKPDGTVKLLIYHTSRLHSGVPSRFSGSGSGTDYSLTISNLEQEDIATYFCQQGNTLPYTFGGGTKLEIT
notes: scFv FMC63 (light chain domain, linker, heavy chain domain); CD8-derived hinge and transmembrane domains (Kymriah format); 4-1BB costimulatory domain (Kymriah format); Chimeric antigen receptor on T cells; source: primary human T cells, lentiviral transduction, on cells
B1: binds.
